Data on one variant can be found in PMC6179307 (2018).

First the molecules themselves.
B1: RPT-6::VC155 [C. elegans] / ELT-2::VN173 [C. elegans] (parent complex)
chain 1: MAPPASTASSADPSKPTAQKLTEESDEKTLRKYFSTKVDDAQQKVADKSQNVRRLQAQRNELNTKVRMLKEELQQLHEQGSYVGEVSKAMDKKKVLVKVHPEGKYVVDVDKSIDINSLNTGARVALRADSYALHKLLPNKVDPLVSLMMVEKVPDSTYEMVGGLDKQIKEIKEVIELPVKHPELFDALGIAQPKGVLLFGPPGTGKTLLARAVAHHTECTFIRVSGSELVQKFIGEGARMVRELFVMAREHAPSIIFMDEIDSIGSSRVEGSSGGDSEVQRTMLELLNQLDGFEATKNIKVIMATNRIDILDPALLRPGRIDRKIEFPAPDEKARADILKIHSRKMNLMRGINMAKIAEQIPGASGAEVKSVCTEAGMFALRERRIHVTQEDFEMAVGKVMQKDSEKNMSIKKLWK
chain 2: MDNNYNDNVNGWAEMEPSQPMGGLRLPTQNMDPPEQNNESQLSELPRMKIDNDYASPIERQSVITSGTNNYEPKVETVTSFFHTGIDYSNFGMLDQTTMQPFYPLYSGIPVNTLGTFSGYTNSIYDKPSLYDPSIPTINIPSTYPTVAPTYECVKCSQSCGAGMKAVNGGMMCVNCSTPKTTYSPPVAYSTSLGQPPILEIPSEQPTAKIAKQSSKKSSSSNRGSNGSASRRQGLVCSNCNGTNTTLWRRNAEGDPVCNACGLYFKLHHIPRPTSMKKEGALQTRKRKSKSGDSSTPSTSRARERKFERASSSTEKAQRSSNRRAGSAKADRELSTAAVAAATATYVSHADLYPVSSAAVTLPDQTYSNYYQWNTAATAGLMMVPNDQNYVYAATNYQTGLRPADNIQVHVMPVQDDETKAAARDLEAVDGDS

The test covers variants of B1. In words: bimolecular fluorescence complementation (BiFC) in vivo, quantified with Copas Biosort; three independent experiments combined, minimum of 399 animals in each case; fluorescence observed twelve hours after heat shock; parent: 750; read off a plot.
Turning to chain 1 MAPPASTASSADPSKPTAQKLTEESDEKTLRKYFSTKVDDAQQKVADKSQNVRRLQAQRNELNTKVRMLKEELQQLHEQGSYVGEVSKAMDKKKVLVKVHPEGKYVVDVDKSIDINSLNTGARVALRADSYALHKLLPNKVDPLVSLMMVEKVPDSTYEMVGGLDKQIKEIKEVIELPVKHPELFDALGIAQPKGVLLFGPPGTGRTLLARAVAHHTECTFIRVSGSELVQKFIGEGARMVRELFVMAREHAPSIIFMDEIDSIGSSRVEGSSGGDSEVQRTMLELLNQLDGFEATKNIKVIMATNRIDILDPALLRPGRIDRKIEFPAPDEKARADILKIHSRKMNLMRGINMAKIAEQIPGASGAEVKSVCTEAGMFALRERRIHVTQEDFEMAVGKVMQKDSEKNMSIKKLWK [chain 1 K206R], the response was around 390 Fluorescence/TOF.
